Laboratory results as given in patent publication US20210032330A1 (PHANES THERAPEUTICS, published 2021).

B1: Chimeric (antibody, V domains shown)
VH: QVQLQQSGAELVKPGASVKLSCKASGYTFTSSDINWVRQRPEQGLEWIGWIFPGDGSTKYNEKFKGKATLTTDKSSSTAYMQLSRLTSEDSAVYFCARGLDYWGQGTTLTVSS
VL: DIKMTQSPSSMYASLGERVTITCKASQDINSYLGWFQQKPGKSPKTLIYRADRLVDGVPSRFSGSGSGQDYSLTISSLEYEDMGIYYCLQYDEFPLTFGAGTKLELK
notes: detected with anti-human IgG-HRP; also called chimeric version of anti-TIM-3 mAb 16-K5-A
B2: H5L5 (antibody, V domains shown)
VH: QVQLQESGPGLVKPSETLSLTCTASGYTFTSSDINWVRQPPGKGLEWIGWIFPGDGSTKYNPSLKSRATLSTDKSKNQASLNLDSVSAADTAIYFCARGLDYWGKGSTVTVSS
VL: DIQMTQSPSSLSASVGDRVTITCKASQDINSYLGWFQQKPGKAPKTLIYRADRLVDGVPSRFSGSGSGQDYTFTISSLQPEDIATYYCLQYDEFPLTFGPGTKVDIK
notes: also called humanized version of anti-TIM-3 mAb 16-K5-A, VH H5 with VL L5
B3: H7L5 (antibody, V domains shown)
VH: QVQLQESGPGLVKPSETLSLTCKASGYTFTSSDINWVRQPPGKGLEWIGWIFPGDGSTKYNPSLKSRATLSTDKSKNQASLNLSSVTAADTAVYFCARGLDYWGKGTTVTVSS
VL: DIQMTQSPSSLSASVGDRVTITCKASQDINSYLGWFQQKPGKAPKTLIYRADRLVDGVPSRFSGSGSGQDYTFTISSLQPEDIATYYCLQYDEFPLTFGPGTKVDIK
notes: also called humanized version of anti-TIM-3 mAb 16-K5-A, VH H7 with VL L5
B4: anti-TIM-3 monoclonal antibody 5-K4-A (antibody, V domains shown)
VH: EVQLQQSGPELVKTGASVKISCKASGYSFTAYYIHWVKQSHGKSLEWIGHISCFNGATSYNQKFKGKATFTVDTSSSTAYMQFNSLTSEDSAVYYCARRGDFDRPEFAYWGQGTLVTVSA
VL: DIVLTQSPASLAVSLGQRATISCRASESVEYYGTSLMQWYQQKPGQPPKLLIYAASNVESGVPARFSGSGSGTDFSLNIHPVEEDDIAMYFCQQSRKVPWTFGGGTKLEIK
notes: Mouse hybridoma mAb; captured on anti-mouse Fc biosensors
B5: anti-TIM-3 monoclonal antibody 20-L10-A (antibody, V domains shown)
VH: QIQLVQSGPELKKPGETVKISCKASGYTFTNYGMNWVKQAPGKVLKWMVWINTYTGEPTYADDFKGRFAFSLETSASTAYLQINNLKNEDTATYFCARDAMDYWGQGTSVTVSS
VL: DVVMTQTPLSLPVSLGDQASISCRSSQSLVHSNGNTYLHWYLQKPGQSPKLLIYKVSNRFSGVPDRFSGSGSGTDFTLKISRVEAEDLGVYFCSQNTHVPWTFGGGTKLEIK
notes: as for B4
B6: anti-TIM-3 monoclonal antibody 8-F3-A (antibody, V domains shown)
VH: QIQLVQSGPELKKPGETVKISCKASGYTFTNYGMNWVKQAPGKGLKWMAWINTYTGEPTYADDFKGRFAFSLETSASTAYLQINNLKNEDTATYFCARDLEDYWGQGTTLTVSS
VL: DVVMTQTPLSLPVSLGDQASISCRSSQSLVHSNGNTYLHWYLQKPGQSPKLLIYKVSNRFSGVPDRFSGSGSGTDFTLKISRVEAEDLGVYFCSQTTHVPWTFGGGTKLEIK
notes: as for B4
B7: anti-TIM-3 monoclonal antibody 15-L23-A (antibody, V domains shown)
VH: QIQLVQSGPELKKPGETVKISCRASGYTFTNYGMNWVKQAPGKGLKWMVWINTYTGEPTFADDFKGRFAFSLETSASTAYLQIINLKNEDTATYFCARDTMDYWGQGTSVTVSS
VL: DIVMTQTPLSLPVSLGDQASISCRSSQSLVHSNGNTYLHWYLQKPGQSPKLLIYKVSNRFSGVPDRFSGSGSGTDFTLKISRVEAEDLGVYFCSQNTHVPWTFGGGTKLEIK
notes: as for B4
B8: anti-TIM-3 monoclonal antibody 6-I13-A (antibody, V domains shown)
VH: EVQLQQSGPELEKPGASVKISCKASGYSFTGYNMNWVKQSNGKSLEWIGNIDPYYGVTSYNQKFKGKATLTVDKSSSTAYMQLKSLTSEDSAVYYCASYSLTYDGYYPFAYWGQGTLVTVSA
VL: DIVLTQSPASLAVSLGQRATISCRASKSVSTSGYSYMHWYQQKPGQPPKLLIYLASNLESGVPARFSGSGSGTDFTLNIHPVEEEDAATYYCQHSRELPYTFGGGTKLEIK
notes: as for B4
B9: anti-TIM-3 monoclonal antibody 10-M21-A (antibody, V domains shown)
VH: DVQLQESGPTLVKPSQTLSLTCSVTGDSITSGYWNWIRKFPGNKLEYMGYISYSGSTYYNPSLKSRISIIRDTSKNQYYLQLNSVTTEDTATYYCVSGNHFDYWGQGTTLTVSS
VL: DIQMTQSPSSLSASLGGKVTITCKASQDINRYIAWYQHKPGKGPRLLIHYTSTLQPGIPSRFSGSGSGRDYSFSISNLEPEDIATYYCLQYDNLLFTFGSGTKLEIK
notes: as for B4
B10: anti-TIM-3 monoclonal antibody 16-L3-A (antibody, V domains shown)
VH: QVQLQQSGPELVKPGASVKMSCKASGYTFTSYYIHWVKQRPGQGLEWIGWIYPGDGSTKYNEKFKGKTTLTADKSSSTAYMLLSSLTSEDSAIYFCATDRYDVAYWGQGTLVTVSA
VL: EIVLTQSPALMAASPGEKVTITCSVSSSISSSNLHWYQQKSETSPKPWIYGTSNLASGVPVRFSGSGSGTSYSLTISSMEAEDAATYYCQQWSSYPLTFGAGTKLELK
notes: as for B4
B11: anti-TIM-3 monoclonal antibody 1-A19-A (antibody, V domains shown)
VH: EVQLQQFGAELVKPGASVKISCKASGYTFTDYNMDWVKQSHGKSLEWIGDIDPNYDITTYNQKFKGKATLTVDKSSSTAYMELRSLTSEDTAVYYCARGGHYRYDGYYALDYWGQGTSVTVSS
VL: DIVLTQSPASLAVSLGQRATISCKASQSVDYDGDSYMNWYQQKPGQPPKLLIYAASNLESGIPARFSGSGSGTDFTLNIHPVEEEDAATYYCQQSNEDPFTFGSGTKLEIK
notes: as for B4
B12: anti-TIM-3 monoclonal antibody 16-J5-A (antibody, V domains shown)
VH: DVQLVESGGGLVQPGGSRKLSCAASGFTFSSFGMNWVRQAPEKGLEWVAYISSGSSTIYYADTVKGRFTISRDNPKNTLFLQMTSLRSEDTAMYYCARWGRWADFDYWGQGTTLTVSS
VL: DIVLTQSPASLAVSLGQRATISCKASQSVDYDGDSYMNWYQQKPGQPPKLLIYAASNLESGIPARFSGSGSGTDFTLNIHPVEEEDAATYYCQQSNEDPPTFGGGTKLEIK
notes: as for B4
B13: anti-TIM-3 monoclonal antibody 10-O15-A (antibody, V domains shown)
VH: QVQLQQSGADLVRPGASVKLSCKALGYTFTDYEMHWVKQTPVHGLEWIGAIHPGSGGTAYNQKFKGKATLTADKSSSTAYMELSSLTSEDSAVYFCSRSYYRYTGYFDVWGAGTTVTVSS
VL: DIVLTQSPASLAVSLGQRATISCRASKSVSASGYSYMHWYQQKPGQPPKLLIYLASNLESGVPARFSGSGSGTDFTLNVHPVEEEDAATYYCQHSRELPFTFGSGTKLEIK
notes: as for B4
B14: anti-TIM-3 monoclonal antibody 18-N1-A (antibody, V domains shown)
VH: QVQLQQPGAELVRPGVSVKLSCKASGYTFTSYWMHWIKQRPEQGLERIGEINPSNGGTNYNEKFKNKATLTVDKSSSTAYMQLSSLTSEDSAVYYCARSYYTYDAIDYWGQGTSVTVSS
VL: DIVMSQSPSSLAVSAGEKVTMSCKSSQSLLNSRTRKNYLAWYQQKPGQSPKLLIYWASTRESGVPDRFTGSGSGTDFTLTISSVQAEDLAVYYCKQSYNLYTFGGGTKLEIK
notes: as for B4
B15: anti-TIM-3 monoclonal antibody 16-K5-A (antibody, V domains shown)
VH: QVQLQQSGAELVKPGASVKLSCKASGYTFTSSDINWVRQRPEQGLEWIGWIFPGDGSTKYNEKFKGKATLTTDKSSSTAYMQLSRLTSEDSAVYFCARGLDYWGQGTTLTVSS
VL: DIKMTQSPSSMYASLGERVTITCKASQDINSYLGWFQQKPGKSPKTLIYRADRLVDGVPSRFSGSGSGQDYSLTISSLEYEDMGIYYCLQYDEFPLTFGAGTKLELK
notes: Mouse hybridoma mAb (parent of the humanized H1L1, H2L1, H5L5, H7L5); captured on anti-mouse Fc biosensors; also called mouse anti-TIM-3 mAb 16-K5-A
B16: 6-H6-A (antibody, V domains shown)
VH: EVQLQQFGAELVKPGASVKISCKASGYTFTDYNMDWVKQSHGKSLEWIGDIDPNYDSTTYNQKFKGKATLTVDKSSSTAYMELRSLTSEDTAVYYCARGGHYRYDGYYAMDYWGQGTSVTVSS
VL: DIVLTQSPASSAVSLGQRATFSCRASQSVSTSSYSFMHWYQQKPGQPPKLLIKYASNLESGVPARFSGSGSGTDFTLNIHPVEEEDTATYYCQHSWEIPPTFGGGTNLEIK
notes: also called anti-TIM-3 monoclonal antibody 6-H6-A
B17: 7-N2-A (antibody, V domains shown)
VH: QVQLKESGPGLVAPSQSLSITCTVSGFSLTGFGVNWVRQPPGKGLEWLGMIWGDGSTDYNSTLKSRLSISKDNSKSQVFLKMNSLQTDDTARYYCARDYYGYVGNAMDYWGQGTSVTVSS
VL: DIVMSQSPSSLAVSAGEKVTMSCKSSQSLLNSRTRKNYLAWYQQKPGQSPKLLIYWASTRESGVPDRFTGSGSGTDFTLTISSVQAEDLAVYYCKQSYNHMYTFGGGTKLEIK
notes: also called anti-TIM-3 monoclonal antibody 7-N2-A
B18: 12-M11-A (antibody, V domains shown)
VH: QVQLQQSGAELAKPGASVKMSCKASGYFTSYWMHWVKQRPGQGLEWIGYINPITGYTEYNQKFKDKATLTADKSSSTAYMQLSRLTSEDSAVYYCARGVENFDYLYAMDYWGQGASVTVSS
VL: QIVLTQSPAIMSASPGEKVTMTCSASSSISYMHWYQQKPGTSPKRWIYDTSKLASGVPTRFNGSGSGTSYSLTISSMEAEDAATYYCHQRSSYRTFGGGTKLEIK
notes: also called anti-TIM-3 monoclonal antibody 12-M11-A
B19: H1L1 (antibody, V domains shown)
VH: EVQLVESGGGLVQPGGSLRLSCAASGYTFTSSDINWVRQAPGKGLVWIGWIFPGDGSTKYTPSLKDQATLSTDKAKNTAYLQMNSLRAEDTAVYFCARGLDYWGQGTLVTVSS
VL: DIQMTQSPSSLSASVGDRVTITCKASQDINSYLGWFQQKPGKAPKTLIYRADRLVDGVPSRFSGSGSGQDYTFTISSLQPEDIATYYCLQYDEFPLTFGQGTKLEIK
notes: also called humanized version of anti-TIM-3 mAb 16-K5-A, VH H1 with VL L1
B20: H2L1 (antibody, V domains shown)
VH: EVQLVESGGGLVQPGGSLRLSCAASGYTFTSSDINWVRQAPGKGLVWIGWIFPGDGSTKYTPSLKDQATLSTDLAKNTAYLQMNSLRAEDTAVYFCARGLDYWGQGTLVTVSS
VL: DIQMTQSPSSLSASVGDRVTITCKASQDINSYLGWFQQKPGKAPKTLIYRADRLVDGVPSRFSGSGSGQDYTFTISSLQPEDIATYYCLQYDEFPLTFGQGTKLEIK
notes: also called humanized version of anti-TIM-3 mAb 16-K5-A, VH H2 with VL L1

The binders below were run against T1, human T-cell immunoglobulin and mucin-domain containing molecule 3 (TIM-3) (human, UniProt Q8TDQ0 22-200, limits assumed) (assay: ELISA, recombinant human TIM-3(ECD)-6His coated on the plate, anti-human IgG-HRP detection, absorbance at 450 nm).
T1 construct: also called Human TIM-3
Protocol: (§1) Recombinant human TIM-3(ECD)-6His in carbonate coating buffer was coated on an ELISA plate at 4° C. overnight.

In order of falling “EC50 (read off the curve)” value:
1. B1  ~0.2 nM
2. B2  ~0.2 nM
3. B3  ~0.1 nM

These binders were tested against T1, human T-cell immunoglobulin and … (assay: BLI (OCTET Red96), mAb on anti-mouse Fc biosensor, antigen in solution, 1:1 model).
Protocol: Binding experiments were performed on OCTET Red96 at 25° C. Antibodies were loaded onto Anti-Mouse Fc (AMC) biosensors. Loaded sensors were dipped into serial dilutions of antigen. Kinetic constants were calculated using a monovalent (1:1) model. The assay buffer was PBS supplemented with 0.1% BSA, 500 mM NaCl, 0.02% Tween-20, pH 7.2.

In order of falling Kd:
1. B9  16 nM
2. B10  14 nM
3. B7  13 nM
4. B5  10 nM
5. B8  9.9 nM
6. B15  7.9 nM
7. B13  3.1 nM
8. B12  2.7 nM
9. B11  2.2 nM
10. B4  1.8 nM
11. B6  1.6 nM
12. B14  1.1 nM

These binders were tested against T1, human T-cell immunoglobulin and … (assay: competition ELISA: pre-equilibrated mixture of mAb and human TIM3(ECD)-huFc on plate-coated phosphatidylserine (PtdSer, a lipid), anti-huFc-HRP detection, % inhibition).
Protocol: (§2) ELISA plates were coated with PtdSer or PtdChol, washed and incubated with a pre-equilibrated mixture of purified antibodies at various concentrations and TIM3(ECD)-huFc. The plates were washed and then the signal was detected by incubation with HRP-coupled anti-huFc secondary antibody and then a HRP substrate. TIM-3 binding to PtdSer was used as 100% signal and TIM-3 binding to PtdChol as zero (background) to calculate percent of inhibition by a given mAb.
(§3) To determine the effect of anti-TIM-3 antibodies on the interaction of TIM-3 with phosphatidylserine (PtdSer), 384-well ELISA plates were coated with PtdSer or phosphatidylcholine (PtdChol) at room temperature. The wells were washed using PBS supplemented with 0.1% Tween-20 and then blocked using PBS supplemented with 2% bovine serum albumin (BSA). […] The plates were washed and then incubated with HRP-coupled anti-huFc secondary antibody. Plates were washed, incubated with an HRP substrate, and read using a POLARstar Omega Microplate (BMG LABTECH). The assay was performed in triplicate.

In order of falling “IC50 (read off the curve)” value:
1. B17  ~7 nM
2. B8  ~4 nM

B16: binds.

Molecular target: T1, human T-cell immunoglobulin and …
Assay: as above
Remark: another data set of the same source
Protocol: as §2, §3

In order of falling “IC50 (read off the curve)” value:
1. B18  ~7 nM
2. B4  ~6 nM

Molecular target: T1, human T-cell immunoglobulin and …
Assay: ELISA, recombinant human TIM-3(ECD)-6His coated on the plate, anti-human IgG-HRP detection, absorbance at 450 nm
Remark: another data set of the same source
Protocol: as §1

In order of falling “EC50 (read off the curve)” value:
1. B20  ~0.09 nM
2. B1  ~0.09 nM
3. B19  ~0.07 nM
